Test results published in patent publication US6063627.

System: Cre recombinase (Bacteriophage P1)
Experiment: cell_activity
Conditions: cotransfection with Cre-expressing plasmid

Substance: Lox sites in pEOBglugl
- activity (log induction of beta-glucuronidase): > 3
